Laboratory results taken from the Immune Epitope Database (IEDB).
pKd: −log10 of the molar value.

How the values were obtained:
Details in all cases: source organism: Cryptosporidium parvum Iowa II
HLA-A*29:02 = assay: IEDB peptide-MHC binding, purified MHC/direct/fluorescence; filed as Kd, often an IC50 or EC50 that approximates it; ≥ and ≤ were set here for values at or beyond the usual limits of such assays
HLA-A*02:16 = assay: as above
HLA-A*24:03 = assay: as above
HLA-A*68:02 = assay: as above
HLA-A*02:03 = assay: as above
HLA-B*15:17 = assay: as above
HLA-A*26:01 = assay: as above
HLA-A*23:01 = assay: as above
HLA-B*39:01 = assay: as above
HLA-A*03:01 = assay: as above
HLA-B*57:01 = assay: as above
HLA-B*27:03 = assay: as above
HLA-A*02:01 = assay: as above
HLA-B*46:01 = assay: as above
HLA-A*02:12 = assay: as above
HLA-A*02:19 = assay: as above
HLA-B*18:01 = assay: as above
HLA-B*15:01 = assay: as above
HLA-B*40:01 = assay: IEDB peptide-MHC binding, purified MHC/competitive/fluorescence; filed as Kd, often an IC50 or EC50 that approximates it; ≥ and ≤ were set here for values at or beyond the usual limits of such assays
HLA-A*30:02 = assay: as above
HLA-B*44:02 = assay: as above
HLA-A*66:01 = assay: as above
HLA-A*01:01 = assay: as above
HLA-B*51:01 = assay: as above
HLA-A*30:01 = assay: as above

**Q.** TVFRNQNRV was tested. Which pKd (HLA-A*29:02) did it give?
**A.** ≤ 4.70

**Q.** What about the pKd (HLA-A*02:16) of the same sequence?
**A.** ≤ 4.70

**Q.** And the pKd (HLA-A*24:03)?
**A.** ≤ 4.70

**Q.** What about the pKd (HLA-A*68:02) of the same sequence?
**A.** ≥ 9.00

**Q.** What about the pKd (HLA-A*02:03) of the same sequence?
**A.** ≤ 4.70

**Q.** And the pKd (HLA-B*15:17)?
**A.** ≤ 4.70

**Q.** What about the pKd (HLA-A*26:01) of the same sequence?
**A.** ≤ 4.70

**Q.** And the pKd (HLA-A*23:01)?
**A.** ≤ 4.70

**Q.** And the pKd (HLA-B*39:01)?
**A.** ≤ 4.70

**Q.** And the pKd (HLA-A*03:01)?
**A.** ≤ 4.70

**Q.** And the pKd (HLA-B*57:01)?
**A.** ≤ 4.70

**Q.** What about the pKd (HLA-B*27:03) of the same sequence?
**A.** ≤ 4.70

**Q.** And the pKd (HLA-A*02:01)?
**A.** ≤ 4.70

**Q.** What about the pKd (HLA-B*46:01) of the same sequence?
**A.** ≤ 4.70

**Q.** What about the pKd (HLA-A*02:12) of the same sequence?
**A.** ≤ 4.70

**Q.** And the pKd (HLA-A*02:19)?
**A.** ≤ 4.70

**Q.** What about the pKd (HLA-B*18:01) of the same sequence?
**A.** ≤ 4.70

**Q.** And the pKd (HLA-B*15:01)?
**A.** ≤ 4.70

**Q.** What about the pKd (HLA-B*40:01) of the same sequence?
**A.** ≤ 5.30

**Q.** What about the pKd (HLA-A*30:02) of the same sequence?
**A.** ≤ 5.30

**Q.** And the pKd (HLA-B*44:02)?
**A.** ≤ 5.30

**Q.** And the pKd (HLA-A*66:01)?
**A.** ≤ 5.30

**Q.** What about the pKd (HLA-A*01:01) of the same sequence?
**A.** ≤ 5.30

**Q.** And the pKd (HLA-B*51:01)?
**A.** ≤ 5.30

**Q.** What about the pKd (HLA-A*30:01) of the same sequence?
**A.** ≤ 5.30
